From the supplement of paper PMC9732359
± gives the uncertainty stated by the source.

Assay: protein stability index of a GFP-peptide fusion (yeast GPS) (PSI 1-4); higher = more stable; sorted into four equal gates, so the index is relative within each strain
Conditions: doa10∆
Summary of the method: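 Tiled 17-residue peptides from yeast proteins were fused downstream of GFP on a plasmid that also expresses Cherry, and the pooled library was carried in yeast. Mid-log cultures grown in leucine-free medium were sorted into four equal gates by GFP/Cherry fluorescence ratio. Plasmids from each gate were PCR-amplified and Illumina-sequenced, and reads were assigned to strains by barcodes. Each peptide's protein stability index is the sum, over gates, of the gate's read frequency multiplied by its gate number.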

| Sequence | protein stability index |
| --- | --- |
| ATAEKLPNIYPSTRCKL [RPT2] | 2.14 ± 0.096 |
| ATEKKSSSPLAMSETLS [PRE8] | 2.33 ± 0.076 |
| ATEVTPQEPKHIQEEEE [RPC19] | 3.24 ± 0.081 |
| ATFTSIELTSYESIATY [RPN7] | 1.75 ± 0.038 |
| ATGKKSRGINKGHKFNN [RPL15A] | 2.5 ± 0.24 |
| ATIRETYEIICDQTKSV [RRP43] | 2.87 ± 0.06 |
| ATKEGVVLGVEKRATSP [PUP2] | 2.72 ± 0.14 |
| ATLQSNEPTQKDEEETE [DSN1] | 3.21 ± 0.16 |
| ATPIPEEVQQAQTEIKL [RPS5] | 2.82 ± 0.11 |
| ATSTNPAKSASARGSYL [RPL17A] | 2.25 ± 0.033 |
| AVAGLTADAEILINTAR [PRE9] | 2.98 ± 0.11 |
| AVEKTLALGCHFQDQKN [POP7] | 2.42 ± 0.12 |
| AVFIVPKILIREHERVI [SWP82] | 1.7 ± 0.085 |
| AVGNLGNAIEVTEDGSI [RPL22B] | 1.16 ± 0.13 |
| AVSAASVVSMSNDVLKP [SIR2] | 2.5 ± 0.048 |
| AVSIETALEHKVVNGNS [FAS2] | 2.14 ± 0.18 |
| AVYETLISRMIFIATQL [BRR2] | 1.96 ± 0.072 |
| AYFLIIVPVISTIENVL [COB] | 1.52 ± 0.057 |
| AYNKKSTISAREIQTAV [HTB1] | 2.5 ± 0.1 |
| AYVAIEQVKDDGTSTEK [RPN8] | 2.48 ± 0.16 |
| CAERVKIQQQQPGYADL [QCR6] | 3.29 ± 0.13 |
| CDDESGDNEYITLRTSG [MCD1] | 3.29 ± 0.16 |
| CDEHMGLSLAGLAPDAR [PRE5] | 2.79 ± 0.18 |
| CEIHPSMILGVAASIIP [RPB2] | 1.35 ± 0.11 |
| CESCSTILCTPTGGKAK [RPS27A] | 1.93 ± 0.046 |
| CGDSIICNTLNIAKDLK [SMC1] | 1.78 ± 0.079 |

| Sequence | protein stability index |
| --- | --- |
| CGLMTVIAKLNHNQFEC [RPB2] | 2.33 ± 0.09 |
| CIFGDAFDVDRAKSCGV [RPL1A] | 3.01 ± 0.073 |
| CIIFMDEVDAIGGRRFS [RPT4] | 2.38 ± 0.089 |
| CKKKEMSQYQSTMKENK [YIL149C/MLP2] | 2.49 ± 0.088 |
| CLGIKDEEMLTSCTIPK [GAL11] | 2.75 ± 0.075 |
| CLLSIPKSTKGKILTIK [YML103C/NUP188] | 1.67 ± 0.053 |
| CNDEDKDLETLYNKIWT [ECM29] | 3.04 ± 0.081 |
| CNERVPLSVATELMNRS [SRP72] | 2.43 ± 0.033 |
| CPYCYKKRREYFPEGYN [SIR2] | 2.43 ± 0.11 |
| CQILDGELDVLQIESVT [PRP8] | 2.56 ± 0.05 |
| CRNINRKHRNAQFAGRA [DIS3] | 2.54 ± 0.11 |
| CRVDFKNPHDIIEGINA [RPL12A] | 2.19 ± 0.07 |
| CSKSIPKDKAIKRMAIR [RPS26A] | 2.8 ± 0.069 |
| CSNNKNSIKNVPPILII [SSN2] | 2.39 ± 0.16 |
| CSSATVPKHMLDKLDEI [AAR2] | 2.79 ± 0.069 |
| CVHMVYEYAEHDLLQII [SSN3] | 2.26 ± 0.086 |
| CYAPRPSAGPHKLRESL [RPS4A] | 2.78 ± 0.083 |
| CYPQFAERDSQGGFYKQ [UBP6] | 3.31 ± 0.065 |
| DAAAEEEKEEEAAEESD [RPP1B] | 3.19 ± 0.13 |
| DAAEEEKEEEAKEESDD [RPP2B] | 2.88 ± 0.3 |
| DAGKIDKHLYHVLYKES [RPL19A] | 3.25 ± 0.24 |
| DAGVTFNKEQLNKFKKA [ECM29] | 1.83 ± 0.053 |
| DAIAVTKGHGFEGVTHR [RPL3] | 3.06 ± 0.11 |
| DAKTSYPNEVLKFNHGN [REC8] | 2.78 ± 0.052 |
| DALEMQWRYLYDTQLKV [ARP7] | 1.75 ± 0.053 |
| DANGVSLFELIVPIFQL [YJL039C/NUP192] | 2.37 ± 0.053 |

| Sequence | protein stability index |
| --- | --- |
| DANLLEEGETSRPLKKV [SWI3] | 3.23 ± 0.12 |
| DASTPLRSTENGIVDQV [RPB2] | 2.94 ± 0.12 |
| DAVEGVSECIILGQTMS [RPO31] | 1.7 ± 0.21 |
| DAYYDLELRNSVMDDIL [PRP8] | 2.98 ± 0.055 |
| DDDDYNAEKYFNNGDDD [RPC31] | 3.01 ± 0.12 |
| DDEHNPTIVGGLYYQRP [AAR2] | 2.66 ± 0.053 |
| DDIYDISLLKNRRKQSF [RPN4] | 2.91 ± 0.11 |
| DDKDCTIKISTNDDSIK [RGR1] | 2.89 ± 0.068 |
| DDLIHFTLKQWNRLTIS [COR1] | 1.3 ± 0.052 |
| DDMDIDEVNDRSDISDS [PCI8] | 3.22 ± 0.12 |
| DDPFMTKSGATTSEKQE [GAL11] | 2.97 ± 0.18 |
| DDTAANNGDKDHLKLVS [YIL149C/MLP2] | 3.25 ± 0.12 |
| DDVISNAGTNDNSFNEL [MCD1] | 3.31 ± 0.15 |
| DDYSNEDNEMLEDLFSY [YJR042W/NUP85] | 2.01 ± 0.15 |
| DEDIITIFKYLTDKDAF [CDC53] | 2.91 ± 0.14 |
| DEGHVLKLENLHVVSKS [SIN4] | 3.14 ± 0.11 |
| DEKEKQLAVANEIIRSL [SIR4] | 2.3 ± 0.048 |
| DEKLKTEKLKNDKSEVL [SRB8] | 3.09 ± 0.3 |
| DELCKLVTCEGSEEKAF [SRP54] | 2.92 ± 0.18 |
| DELERILKELSNLETLY [RPB4] | 3.21 ± 0.092 |
| DELSSKELVECHLYSQR [NNF1] | 2.05 ± 0.056 |
| DESDTISFRSNLLKNFI [SNF6] | 2.04 ± 0.084 |
| DESLIRELYKYVRKHDP [PRP28] | 3.4 ± 0.14 |
| DESSGTSRIDEEKPGLI [SMC4] | 2.89 ± 0.058 |
| DEVDAIGGRRFSEGTSA [RPT4] | 2.72 ± 0.086 |
| DFDNIEFKKIPRVKGFK [SEC65] | 2.84 ± 0.14 |

| Sequence | protein stability index |
| --- | --- |
| DFNEIVQYLSGAHGNSD [POP3] | 1.24 ± 0.096 |
| DGGYNAQLAKAKTELNE [SMC2] | 2.64 ± 0.092 |
| DGKKHSVFYTILRDYGP [RPO31] | 2.86 ± 0.072 |
| DGMYSESKLSLETLFNR [FAS2] | 3.39 ± 0.075 |
| DGRSFDQFRDVEITFGK [RRP45] | 3.27 ± 0.092 |
| DHINGSGKRKPTKAAQR [GAL11] | 2.3 ± 0.14 |
| DIDAVNGAVGKREGKTR [ISW2] | 2.94 ± 0.13 |
| DIETQLCSMLQEASQVT [MED11] | 2.73 ± 0.1 |
| DIGKEMSLRHFGHLMHY [RPN1] | 1.26 ± 0.049 |
| DIIVAIKIFELKLPADA [IRR1] | 1.54 ± 0.078 |
| DINQAKDFIENVNNRFD [BRN1] | 3.25 ± 0.12 |
| DISLKADLERFFLSIYF [YJL039C/NUP192] | 3.24 ± 0.13 |
| DITGIRDVSDDVFDTLA [GRR1] | 3.02 ± 0.12 |
| DKDSEELDSKTRKILEI [MED4] | 2.98 ± 0.093 |
| DKFFNEVNKSELYLTAE [SIR3] | 3.43 ± 0.13 |
| DKIPLNYAMTRNILHNT [SRB5] | 1.82 ± 0.057 |
| DKLKVYKQAMNETSEQL [SNF5] | 3.17 ± 0.11 |
| DKLTRVHDKIWCCRSGS [PRE3] | 2.78 ± 0.061 |
| DKNELQQMIITRLKSLL [SIR3] | 2.23 ± 0.058 |
| DKRIVISIDSWPTTHKY [DIS3] | 1.92 ± 0.065 |
| DKVTSQAVNNLIKTLST [RPP1] | 2.53 ± 0.059 |
| DLALKMGVPIYGIVAMA [FAS2] | 1.85 ± 0.27 |
| DLEKLLEMSTEDFVKLA [RPS15] | 3.11 ± 0.15 |
| DLLRSQLTSLEKDCSLR [YIL149C/MLP2] | 2.94 ± 0.061 |
| DLTMGQVGERIKQTFKN [RPO21] | 3.31 ± 0.15 |
| DLTRVYKAISAQADKQD [FAS2] | 1.54 ± 0.054 |

Same assay, conditions: pdr5∆

| Sequence | protein stability index |
| --- | --- |
| ATAEKLPNIYPSTRCKL [RPT2] | 1.66 ± 0.091 |
